This note sets out measurements from article PMC5086056.

This experiment has as its target AcGFP1-JAK3 (pAcGFP1-JAK3) (Bos taurus) (UniProt E1BEL4). The experiment can be described thus: co-IP; Matchmaker Co-IP system; ProLabel enzymatic activity (luminescence, ProLabel detection kit) in protein samples of HEK cells co-transfected with pAcGFP1-JAK3 and a pProLabel prey; read 25 min after addition of the substrate; against the negative control.
Sequence of UniProt E1BEL4 (E1BEL4 entry or part of it): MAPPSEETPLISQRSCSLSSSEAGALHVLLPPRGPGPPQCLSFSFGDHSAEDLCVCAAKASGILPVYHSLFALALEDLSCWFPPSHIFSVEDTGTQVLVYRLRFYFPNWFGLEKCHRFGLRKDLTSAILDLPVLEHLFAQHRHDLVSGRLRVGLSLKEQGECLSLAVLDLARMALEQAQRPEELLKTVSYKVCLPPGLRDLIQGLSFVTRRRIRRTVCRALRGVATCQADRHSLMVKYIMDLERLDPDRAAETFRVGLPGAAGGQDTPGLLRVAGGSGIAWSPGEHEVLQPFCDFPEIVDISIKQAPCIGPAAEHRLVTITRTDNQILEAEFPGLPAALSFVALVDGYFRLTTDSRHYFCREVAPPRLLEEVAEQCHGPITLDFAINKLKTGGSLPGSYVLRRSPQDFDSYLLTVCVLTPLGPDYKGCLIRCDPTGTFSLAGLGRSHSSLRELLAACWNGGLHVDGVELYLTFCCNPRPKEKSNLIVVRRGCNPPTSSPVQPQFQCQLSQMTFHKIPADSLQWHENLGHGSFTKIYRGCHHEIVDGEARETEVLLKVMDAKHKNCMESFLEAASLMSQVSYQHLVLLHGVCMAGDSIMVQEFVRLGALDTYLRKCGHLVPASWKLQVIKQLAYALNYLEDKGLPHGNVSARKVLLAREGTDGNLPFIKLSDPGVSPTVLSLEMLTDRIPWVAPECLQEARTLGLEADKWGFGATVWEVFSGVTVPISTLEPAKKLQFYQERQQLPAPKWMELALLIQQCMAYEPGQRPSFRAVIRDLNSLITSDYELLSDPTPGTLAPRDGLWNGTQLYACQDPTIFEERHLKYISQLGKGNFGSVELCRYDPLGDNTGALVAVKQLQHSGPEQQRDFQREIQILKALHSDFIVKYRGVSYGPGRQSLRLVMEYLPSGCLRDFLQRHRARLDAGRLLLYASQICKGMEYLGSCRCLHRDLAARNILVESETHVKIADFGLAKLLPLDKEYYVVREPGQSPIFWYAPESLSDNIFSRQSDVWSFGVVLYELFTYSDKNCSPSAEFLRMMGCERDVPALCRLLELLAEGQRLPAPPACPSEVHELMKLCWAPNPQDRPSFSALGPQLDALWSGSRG
For “ProLabel-INHBA (pProLabel-INHBA) (from UniProt P07995 21-425) (natural protein)”, the fold induction in ProLabel enzymatic activity as compared to the negative control is 34 fold. “ProLabel-LEPROTL1 (pProLabel-LEPROTL1) (from UniProt Q32PD8 1-131) (natural protein)” came in with a fold induction in ProLabel enzymatic activity as compared to the negative control of 42 fold. Take “ProLabel-CDKN1B (pProLabel-CDKN1B) (from UniProt A6QLS3 1-198) (natural protein)”: the fold induction in ProLabel enzymatic activity as compared to the negative control was found to be 15 fold.
